One block for each substance: values may come before it.
Columns and labels:
[1] = dual-color fluorescence cross-correlation spectroscopy (FCCS); self-aggregation: Cy5-labelled and Oregon green 488-labelled copies of the same construct mixed in equal volumes (125 µL each) at 536 µM monomer-equivalent, incubated at 310 K with shaking at 250 rpm for up to 24 h; aliquots …; settings: other: dual-color fluorescence cross-correlation spectroscopy (FCCS)
[2] = molecular target: α-synuclein tandem octamer (αS-8), C-terminally Cys-tagged, dye-labelled; test: dual-color fluorescence cross-correlation spectroscopy (FCCS); self-aggregation: Cy5-labelled and Oregon green 488-labelled copies of the same construct mixed in equal volumes (125 µL each) at 536 µM monomer-equivalent, incubated at 310 K with shaking at 250 rpm for up to 24 h; aliquots diluted in PBS to ~134 pM and measured at 298 K; fractions nrg/nr and nrg/ng fitted to single-exponential growth
[3] = molecular target: α-synuclein tandem tetramer (αS-4), C-terminally Cys-tagged, dye-labelled; test: as above
[4] = molecular target: α-synuclein tandem dimer (αS-2), C-terminally Cys-tagged, dye-labelled; test: as above
[5] = molecular target: α-synuclein tandem octamer (αS-8), C-terminally Cys-tagged, dye-labelled; test: dual-color fluorescence cross-correlation spectroscopy (FCCS); co-aggregation: Cy5-labelled tandem oligomer mixed with Oregon green 488-labelled monomer, equal volumes (125 µL each) at 536 µM monomer-equivalent, 310 K, shaking at 250 rpm, up to 24 h; aliquots diluted in PBS to ~134 pM and measured at 298 K; single-exponential fits
[6] = molecular target: α-synuclein tandem dimer (αS-2), C-terminally Cys-tagged, dye-labelled; test: as above
[7] = molecular target: α-synuclein tandem tetramer (αS-4), C-terminally Cys-tagged, dye-labelled; test: as above
[8] = molecular target: α-synuclein tandem octamer (αS-8), C-terminally Cys-tagged, dye-labelled; test: dual-color fluorescence cross-correlation spectroscopy (FCCS); co-aggregation with swapped fluorophores: Cy5-labelled monomer mixed with Oregon green 488-labelled tandem oligomer, equal volumes (125 µL each) at 536 µM monomer-equivalent, 310 K, shaking at 250 rpm, up to 24 h; aliquots diluted in PBS to ~134 pM and measured at 298 K; single-exponential fits
[9] = molecular target: α-synuclein tandem dimer (αS-2), C-terminally Cys-tagged, dye-labelled; test: as above
[10] = molecular target: α-synuclein tandem tetramer (αS-4), C-terminally Cys-tagged, dye-labelled; test: as above
[11] = molecular target: α-synuclein monomer (αS-1), C-terminally Cys-tagged, dye-labelled; test: dual-color fluorescence cross-correlation spectroscopy (FCCS); self-aggregation: Cy5-labelled and Oregon green 488-labelled copies of the same construct mixed in equal volumes (125 µL each) at 536 µM monomer-equivalent, incubated at 310 K with shaking at 250 rpm for up to 24 h; aliquots diluted in PBS to ~134 pM and measured at 298 K; fractions nrg/nr and nrg/ng fitted to single-exponential growth

Substance: α-synuclein monomer (αS-1), C-terminally Cys-tagged, dye-labelled
percent incorporated into dual-color aggregates after 24 hr [1]: only ~5% of αS-1 and αS-2
|A| of nrg/ng (extent, percent of Oregon green-labelled species in dual-color aggregates) [1]: 8%
|A| of nrg/nr (extent, percent of Cy5-labelled species in dual-color aggregates) [1]: 6%

k of nrg/ng (rate of exponential growth of aggregation) [2]: 0.06 h⁻¹
k of nrg/nr (rate of exponential growth of aggregation) [2]: 0.15 h⁻¹
Substance: α-synuclein tandem octamer (αS-8), C-terminally Cys-tagged, dye-labelled
percent incorporated into dual-color aggregates after 24 hr [1]: ~35% of Cy5-labelled αS-8
|A| of nrg/ng (extent, percent of Oregon green-labelled species in dual-color aggregates) [1]: 26%
|A| of nrg/nr (extent, percent of Cy5-labelled species in dual-color aggregates) [1]: 29%

k of nrg/ng (rate of exponential growth of aggregation) [3]: 0.18 h⁻¹
k of nrg/nr (rate of exponential growth of aggregation) [3]: 0.17 h⁻¹
Substance: α-synuclein tandem tetramer (αS-4), C-terminally Cys-tagged, dye-labelled
percent incorporated into dual-color aggregates after 24 hr [1]: ~15% of Cy5-labelled αS-4
|A| of nrg/ng (extent, percent of Oregon green-labelled species in dual-color aggregates) [1]: 17%
|A| of nrg/nr (extent, percent of Cy5-labelled species in dual-color aggregates) [1]: 14%

k of nrg/ng (rate of exponential growth of aggregation) [4]: 0.2 h⁻¹
k of nrg/nr (rate of exponential growth of aggregation) [4]: 0.23 h⁻¹
Substance: α-synuclein tandem dimer (αS-2), C-terminally Cys-tagged, dye-labelled
percent incorporated into dual-color aggregates after 24 hr [1]: only ~5% of αS-1 and αS-2
|A| of nrg/ng (extent, percent of Oregon green-labelled species in dual-color aggregates) [1]: 4%
|A| of nrg/nr (extent, percent of Cy5-labelled species in dual-color aggregates) [1]: 5%

k of nrg/ng (rate of exponential growth of co-aggregation) [5]: 0.4 h⁻¹
k of nrg/nr (rate of exponential growth of co-aggregation) [5]: 0.12 h⁻¹
|A| of nrg/ng (extent, percent of Oregon green-labelled αS-1 in dual-color co-aggregates) [5]: 1%
|A| of nrg/nr (extent, percent of Cy5-labelled αS-8 in dual-color co-aggregates) [5]: 40%
k of nrg/ng (rate of exponential growth of co-aggregation) [6]: 0.4 h⁻¹
k of nrg/nr (rate of exponential growth of co-aggregation) [6]: 0.11 h⁻¹
|A| of nrg/ng (extent, percent of Oregon green-labelled αS-1 in dual-color co-aggregates) [6]: 1.7%
|A| of nrg/nr (extent, percent of Cy5-labelled αS-2 in dual-color co-aggregates) [6]: 4%
k of nrg/ng (rate of exponential growth of co-aggregation) [7]: 0.8 h⁻¹
k of nrg/nr (rate of exponential growth of co-aggregation) [7]: 0.23 h⁻¹
|A| of nrg/ng (extent, percent of Oregon green-labelled αS-1 in dual-color co-aggregates) [7]: 2%
|A| of nrg/nr (extent, percent of Cy5-labelled αS-4 in dual-color co-aggregates) [7]: 11%
k of nrg/ng (rate of exponential growth of co-aggregation) [8]: 0.2 h⁻¹
k of nrg/nr (rate of exponential growth of co-aggregation) [8]: 0.05 h⁻¹
|A| of nrg/ng (extent, percent of Oregon green-labelled αS-8 in dual-color co-aggregates) [8]: 11%
|A| of nrg/nr (extent, percent of Cy5-labelled αS-1 in dual-color co-aggregates) [8]: 4%
k of nrg/ng (rate of exponential growth of co-aggregation) [9]: 0.2 h⁻¹
k of nrg/nr (rate of exponential growth of co-aggregation) [9]: 0.2 h⁻¹
|A| of nrg/ng (extent, percent of Oregon green-labelled αS-2 in dual-color co-aggregates) [9]: 4%
|A| of nrg/nr (extent, percent of Cy5-labelled αS-1 in dual-color co-aggregates) [9]: 5%
k of nrg/ng (rate of exponential growth of co-aggregation) [10]: 0.5 h⁻¹
k of nrg/nr (rate of exponential growth of co-aggregation) [10]: 2 h⁻¹
|A| of nrg/ng (extent, percent of Oregon green-labelled αS-4 in dual-color co-aggregates) [10]: 20%
|A| of nrg/nr (extent, percent of Cy5-labelled αS-1 in dual-color co-aggregates) [10]: 1%
k of nrg/ng (rate of exponential growth of aggregation) [11]: 0.035 h⁻¹
k of nrg/nr (rate of exponential growth of aggregation) [11]: 0.043 h⁻¹
Substance: α-synuclein monomer (αS-1), C-terminally Cys-tagged, dye-labelled (natural protein)

Source: article PMC6370846
